Measurements published in US20240417436A1 (BRIGHT PEAK THERAPEUTICS, published 2024).
Primed or numbered codes have the meaning given here. [ ]: non-standard residue; d: D form. Ygp″ = O-(PEG8-amino)-tyrosine (O-(8x polyethylene glycol-amino)-tyrosine); Yn3″ = O-(PEG9-azido)-tyrosine (O-(9x polyethylene glycol-azido)-tyrosine); Ygp = O-(8x polyethylene glycol-amino)-tyrosine; Yn3 = O-(9x polyethylene glycol-azido)-tyrosine; hSer = N[C@@H](CCO)C(=O)O; Nle = CCCC[C@H](N)C(=O)O

T1: IL-2 receptor βγ complex on pan T cells (human, UniProt P14784 27-551; P31785 23-369)
T1 sequence (looked up) 1: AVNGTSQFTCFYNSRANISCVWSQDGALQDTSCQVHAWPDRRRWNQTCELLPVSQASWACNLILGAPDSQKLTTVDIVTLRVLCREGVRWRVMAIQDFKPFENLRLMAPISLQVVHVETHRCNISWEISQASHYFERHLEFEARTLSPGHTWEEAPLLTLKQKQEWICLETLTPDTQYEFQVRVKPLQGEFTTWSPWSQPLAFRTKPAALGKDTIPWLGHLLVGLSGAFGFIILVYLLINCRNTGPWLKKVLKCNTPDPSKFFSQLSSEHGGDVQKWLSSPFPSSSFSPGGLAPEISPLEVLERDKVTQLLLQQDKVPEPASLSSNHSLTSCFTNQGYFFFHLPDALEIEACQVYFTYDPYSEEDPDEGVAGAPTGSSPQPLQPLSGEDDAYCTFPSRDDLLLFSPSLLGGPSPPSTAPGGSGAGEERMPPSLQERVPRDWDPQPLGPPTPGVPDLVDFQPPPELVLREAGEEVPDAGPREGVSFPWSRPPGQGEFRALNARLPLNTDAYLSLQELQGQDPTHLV
T1 sequence (looked up) 2: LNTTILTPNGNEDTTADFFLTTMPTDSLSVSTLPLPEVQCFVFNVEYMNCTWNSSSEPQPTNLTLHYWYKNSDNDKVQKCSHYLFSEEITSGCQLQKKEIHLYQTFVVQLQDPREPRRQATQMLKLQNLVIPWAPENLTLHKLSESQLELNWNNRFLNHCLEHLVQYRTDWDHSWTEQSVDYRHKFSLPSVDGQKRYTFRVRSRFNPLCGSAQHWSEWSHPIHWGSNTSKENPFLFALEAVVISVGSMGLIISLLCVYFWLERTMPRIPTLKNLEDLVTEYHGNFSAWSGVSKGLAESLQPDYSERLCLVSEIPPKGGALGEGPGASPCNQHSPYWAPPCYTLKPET

B1: CMP-127, MMP2 cleaved (ligand)
chain: APTSSSTKKTQLQLEHLLLDLQKILNGINNYKNPKLTR[Nle]L[hSer][Yn3″]KF[Ygp″][Nle]PKKATELKHLQCLEEELKPLEEVL[hSer]LAQSKNFHLRPRDLISNINVIVLELKGSETTF[hSer]CEYADETATIVEFLNRWITFSQSIISTLT
modifications: ends and bridges not checked; also: Lys23 side chain attached via PEG9 to cleavable peptide, MMP2-cleaved, remnant stays attached, cut site not given here
B2: CMP-123, MMP2 cleaved (ligand)
chain: APTSSSTKKTQLQLEHLLLDLQKILNGINNYKNPKLTR[Nle]L[hSer][Yn3″]KF[Ygp″][Nle]PKKATELKHLQCLEEELKPLEEVL[hSer]LAQSKNFHLRPRDLISNINVIVLELKGSETTF[hSer]CEYADETATIVEFLNRWITFSQSIISTLT
modifications: ends and bridges not checked; also: Lys23 side chain attached via PEG9 to cleavable peptide, MMP2-cleaved, remnant stays attached, cut site not given here
B3: CMP-126, MMP2 cleaved (ligand)
chain: APTSSSTKKTQLQLEHLLLDLQKILNGINNYKNPKLTR[Nle]L[hSer][Yn3″]KF[Ygp″][Nle]PKKATELKHLQCLEEELKPLEEVL[hSer]LAQSKNFHLRPRDLISNINVIVLELKGSETTF[hSer]CEYADETATIVEFLNRWITFSQSIISTLT
modifications: ends and bridges not checked; also: Lys23 side chain attached to cleavable peptide, MMP2-cleaved, remnant stays attached, cut site not given here
B4: CMP-120, MMP2 cleaved (ligand)
chain: APTSSSTKKTQLQLEHLLLDLQKILNGINNYKNPKLTR[Nle]L[hSer][Yn3″]KF[Ygp″][Nle]PKKATELKHLQCLEEELKPLEEVL[hSer]LAQSKNFHLRPRDLISNINVIVLELKGSETTF[hSer]CEYADETATIVEFLNRWITFSQSIISTLT
modifications: ends and bridges not checked; also: Lys23 side chain attached to cleavable peptide, MMP2-cleaved, remnant stays attached, cut site not given here
B5: CMP-125, MMP2 cleaved (ligand)
chain: APTSSSTKKTQLQLEHLLLDLQKILNGINNYKNPKLTR[Nle]L[hSer][Yn3″]KF[Ygp″][Nle]PKKATELKHLQCLEEELKPLEEVL[hSer]LAQSKNFHLRPRDLISNINVIVLELKGSETTF[hSer]CEYADETATIVEFLNRWITFSQSIISTLT
modifications: ends and bridges not checked; also: cleavable moiety on Lys23 side chain, not given here
B6: CMP-122, MMP2 cleaved (ligand)
chain: APTSSSTKKTQLQLEHLLLDLQKILNGINNYKNPKLTR[Nle]L[hSer][Yn3″]KF[Ygp″][Nle]PKKATELKHLQCLEEELKPLEEVL[hSer]LAQSKNFHLRPRDLISNINVIVLELKGSETTF[hSer]CEYADETATIVEFLNRWITFSQSIISTLT
modifications: ends and bridges not checked; also: Lys23 side chain attached via PEG9 to cleavable peptide, MMP2-cleaved, remnant stays attached, cut site not given here
B7: CMP-141, MMP2 cleaved (ligand)
chain: APTSSSTKKTQLQLEHLLLDLQKILNGINNYKNPKLTR[Nle]L[hSer][Yn3]KF[Ygp][Nle]PKKATELKHLQCLEEELKPLEEVL[hSer]LAQSKNFHLRPRDLISNINVIVLELKGSETTF[hSer]CEYADETATIVEFLNRWITFSQSIISTLT
modifications: not fully specified (residue 23); ends and bridges not checked; also: MMP2-cleaved, remnant of moiety on Lys23 side chain, not given here
B8: CMP-142, MMP2 cleaved (ligand)
chain: APTSSSTKKTQLQLEHLLLDLQKILNGINNYKNPKLTR[Nle]L[hSer][Yn3]KF[Ygp][Nle]PKKATELKHLQCLEEELKPLEEVL[hSer]LAQSKNFHLRPRDLISNINVIVLELKGSETTF[hSer]CEYADETATIVEFLNRWITFSQSIISTLT
modifications: not fully specified (residue 23); ends and bridges not checked; also: MMP2-cut remnant of cleavable moiety on Lys23 side chain, not given here
B9: CMP-118, MMP2 cleaved (ligand)
chain: APTSSSTKKTQLQLEHLLLDLQKILNGINNYKNPKLTR[Nle]L[hSer][Yn3″]KF[Ygp″][Nle]PKKATELKHLQCLEEELKPLEEVL[hSer]LAQSKNFHLRPRDLISNINVIVLELKGSETTF[hSer]CEYADETATIVEFLNRWITFSQSIISTLT
modifications: ends and bridges not checked; also: Lys23 side chain attached to cleavable peptide, MMP2-cleaved, remnant stays attached, cut site not given here
B10: CMP-124, MMP2 cleaved (ligand)
chain: APTSSSTKKTQLQLEHLLLDLQKILNGINNYKNPKLTR[Nle]L[hSer][Yn3″]KF[Ygp″][Nle]PKKATELKHLQCLEEELKPLEEVL[hSer]LAQSKNFHLRPRDLISNINVIVLELKGSETTF[hSer]CEYADETATIVEFLNRWITFSQSIISTLT
modifications: ends and bridges not checked; also: Lys23 side chain attached to cleavable peptide, MMP2-cleaved, remnant stays attached, cut site not given here
B11: CMP-143, MMP2 cleaved (ligand)
chain: APTSSSTKKTQLQLEHLLLDLQKILNGINNYKNPKLTR[Nle]L[hSer][Yn3]KF[Ygp][Nle]PKKATELKHLQCLEEELKPLEEVL[hSer]LAQSKNFHLRPRDLISNINVIVLELKGSETTF[hSer]CEYADETATIVEFLNRWITFSQSIISTLT
modifications: not fully specified (residue 23); ends and bridges not checked; also: MMP2-cut remnant of cleavable moiety on Lys23 side chain, not given here
B12: CMP-129, MMP2 cleaved (ligand)
chain: APTSSSTKKTQLQLEHLLLDLQKILNGINNYKNPKLTR[Nle]L[hSer][Yn3″]KF[Ygp″][Nle]PKKATELKHLQCLEEELKPLEEVL[hSer]LAQSKNFHLRPRDLISNINVIVLELKGSETTF[hSer]CEYADETATIVEFLNRWITFSQSIISTLT
modifications: ends and bridges not checked; also: Lys23 side chain attached via PEG9 to cleavable peptide, MMP2-cleaved, remnant stays attached, cut site not given here
B13: CMP-119, MMP2 cleaved (ligand)
chain: APTSSSTKKTQLQLEHLLLDLQKILNGINNYKNPKLTR[Nle]L[hSer][Yn3″]KF[Ygp″][Nle]PKKATELKHLQCLEEELKPLEEVL[hSer]LAQSKNFHLRPRDLISNINVIVLELKGSETTF[hSer]CEYADETATIVEFLNRWITFSQSIISTLT
modifications: ends and bridges not checked; also: Lys23 side chain attached to cleavable peptide, MMP2-cleaved, remnant stays attached, cut site not given here
B14: CMP-128, MMP2 cleaved (ligand)
chain: APTSSSTKKTQLQLEHLLLDLQKILNGINNYKNPKLTR[Nle]L[hSer][Yn3″]KF[Ygp″][Nle]PKKATELKHLQCLEEELKPLEEVL[hSer]LAQSKNFHLRPRDLISNINVIVLELKGSETTF[hSer]CEYADETATIVEFLNRWITFSQSIISTLT
modifications: ends and bridges not checked; also: Lys23 side chain attached via PEG9 to cleavable peptide, MMP2-cleaved, remnant stays attached, cut site not given here

These binders were tested against T1, IL-2 receptor βγ complex on pan T cells (assay: cell-based or functional assay).

Average EC50, pSTAT5 assay in pan T cells, MMP2 cleaved molecule | Binder
2.43 nM | B1
2.93 nM | B2
2.03 nM | B3
0.7 nM | B4
1.73 nM | B5
3.55 nM | B6
0.8 nM | B7
0.56 nM | B8
0.9 nM | B9
2.07 nM | B10
1.99 nM | B11
1.4 nM | B12
0.63 nM | B13
3.68 nM | B14
